{"source": "patent US20230303623A1", "about": "“PEPTIDES AND METHODS OF USE” (REALTA LIFE SCIENCES, INC., priority 2020, published 2023)", "key": {"[1]": {"experiment": "Total Antioxidant Capacity (TAC) assay", "details": "highest peptide concentration 1.5 mM; compared to parent peptide", "protocol": "As previously reported, the TAC (Total Antioxidant Capacity) Assay (Cell Biolabs, Inc, San Diego, CA) was used to measure the antioxidant capacity of the PIC1 variants based on the reduction of copper (II) to copper (I). The kit protocol was performed per the manufacturer's recommendations.\nThe antioxidant properties for the PIC1 variants were evaluated in a Total Antioxidant Capacity (TAC) assay, as previously reported. Total antioxidant activity over a range of peptide concentrations were determined for the stapled and the D-amino acid peptides based on the PA-I8Sar and PA-C9Sar backbones (FIG. 4A-4B), with the activity of the highest peptide concentration reported (1.5 mM) (FIG. 5A-5C)."}, "C1q [2]": {"target": "T1, C1q (Homo sapiens, UniProt P02745+P02746+P02747)", "T1 construct": "purchased Complement Technology (Tyler, TX)", "T1 sequence (P02745 23-245)": "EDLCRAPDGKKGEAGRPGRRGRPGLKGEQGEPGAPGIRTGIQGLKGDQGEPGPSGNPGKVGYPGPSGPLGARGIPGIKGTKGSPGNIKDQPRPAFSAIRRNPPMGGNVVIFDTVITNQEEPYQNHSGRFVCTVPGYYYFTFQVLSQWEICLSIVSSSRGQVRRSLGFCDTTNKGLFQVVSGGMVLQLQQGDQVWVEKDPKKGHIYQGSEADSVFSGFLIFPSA", "T1 sequence (P02746 28-253)": "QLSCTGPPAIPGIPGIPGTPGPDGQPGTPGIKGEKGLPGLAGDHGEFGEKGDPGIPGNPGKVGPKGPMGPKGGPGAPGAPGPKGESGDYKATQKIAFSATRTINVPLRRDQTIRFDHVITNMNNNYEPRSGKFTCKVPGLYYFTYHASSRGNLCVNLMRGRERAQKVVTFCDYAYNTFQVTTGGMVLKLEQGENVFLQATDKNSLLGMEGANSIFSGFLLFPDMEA", "T1 sequence (P02747 29-245)": "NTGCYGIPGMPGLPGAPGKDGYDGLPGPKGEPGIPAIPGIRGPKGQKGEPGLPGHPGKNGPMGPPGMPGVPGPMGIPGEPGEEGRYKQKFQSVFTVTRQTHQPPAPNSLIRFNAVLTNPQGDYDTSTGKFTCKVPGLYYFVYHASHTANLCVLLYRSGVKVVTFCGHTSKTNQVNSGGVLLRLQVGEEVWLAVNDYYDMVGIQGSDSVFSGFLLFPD", "experiment": "C1q binding ELISA-type assay", "details": "compared to parent peptide", "protocol": "The C1q binding assay was performed as previously described. Briefly, an Immunlon-2 HB ELISA plate was coated with 1 μg/ml C1q in bicarbonate buffer overnight at 4° C. The plates were washed with PBS-T (phosphate buffered saline+0.1% Tween) and then blocked with 1% gelatin/PBS for 2 hours at room temperature. After washing, the plates were incubated with the peptides starting at 2.5 mg/ml and then serially diluted in 1% gelatin/PBS for 1 hour at room temperature followed by washing. Plates were then probed with rabbit antibody raised against the lead peptide […] (SEQ ID NO: 2) that lacked PEGylation at 1:1000 in 1% gelatin/PBS for 1 hour at room temperature followed by a goat anti-rabbit HRP (Sigma Aldrich, St Louis, MO) at 1:1,000 in 1% gelatin/PBS for 1 hour at room temperature with a washing step in between. After addition of TMB substrate solution to the wells, the reaction was stopped using 1N H2SO4, and the plate read on a BioTek Synergy HT plate reader at 450 nm.\nThe astrovirus capsid protein and the PIC1 molecules derived from it inhibit classical complement pathway activation by binding to the pattern recognition molecule C1q. The inventors next tested peptide variant binding to C1q in an ELISA-type assay in which C1q is used as the capture substrate and bound peptide detected with a rabbit polyclonal antibody against the peptide portion of PA-dPEG24 ([…]-d24; SEQ ID NO: 3). Binding curves were derived for the stapled and D-amino acid peptides based on the PA-I8Sar and PA-C9Sar (FIG. 5A-5C) backbone, from which half-maximal binding concentrations were calculated (FIGS. 2A and B, respectively). […] For the peptides based on the PA-C9Sar backbone, C1q was bound to a greater degree than the parent peptide (FIG. 2B)."}, "C1q [3]": {"target": "T1, C1q", "experiment": "Peptide binding to immobilized C1q (positive control), ELISA plate-based assay of Example 3", "details": "increasing amounts of peptide; positive control protein", "protocol": "(§1) RLS-0134 and RLS-0150 were allowed to bind to immobilized CTLA-4, PD-1, PD-L1 on the surface of the plate. Bound C1q and MAC-1 served as a positive and negative control for peptide binding, respectively. Increasing amounts of peptides were added to the plates followed by a rabbit polyclonal antibody that recognizes the peptides and then a secondary anti-rabbit antibody conjugated with HRP. The plate was then developed by addition of TMB as the substrate for the colorimetric assay.\n(§2) The inventors further evaluated if RLS-0134 and RLS-0150 could bind to the well characterized checkpoint inhibitor, cytotoxic T-lymphocyte associated protein 4 (CTLA-4 aka CD152). […] Therefore, the pharmaceutical inhibition of CTLA-4 or its ligand has been considered a promising strategy by many cancer researchers and could be a therapeutic target in cancer immunotherapy. To ascertain the ability of select PIC1 peptides to bind CTLA-4, a binding assay was performed in which these proteins were coated on a microtiter plate followed by incubation with increasing amounts of either RLS-0134 and RLS-0150. Plates coated with PD-1, PD-L1 and C1q served as a positive control for peptide binding whereas MAC-1 served as a negative control for peptide binding."}, "PD-1": {"target": "PD-1 (Homo sapiens, UniProt Q15116)", "sequence (Q15116 25-288)": "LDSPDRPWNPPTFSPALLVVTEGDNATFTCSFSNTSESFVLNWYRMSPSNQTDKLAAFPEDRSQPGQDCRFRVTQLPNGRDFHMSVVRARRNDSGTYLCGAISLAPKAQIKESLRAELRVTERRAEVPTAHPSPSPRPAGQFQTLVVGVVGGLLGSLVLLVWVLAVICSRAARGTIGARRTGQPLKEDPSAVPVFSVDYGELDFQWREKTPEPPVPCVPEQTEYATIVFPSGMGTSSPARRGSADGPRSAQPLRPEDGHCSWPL", "experiment": "Peptide binding to immobilized PD-1, ELISA plate-based assay", "details": "increasing amounts of peptide", "protocol": "as §1, §2"}, "[4]": {"tested_on": "antibody-initiated complement activation (lysis of AB human red blood cells by type O serum)", "experiment": "ABO incompatibility hemolytic complement assay (CH50-type)", "format": "cell-based", "details": "peptides 0.8 mg/ml (~0.5 mM); compared to parent peptide", "protocol": "FIG. 1A-1B show PIC1 peptides' inhibition of complement activation in an ABO incompatibility assay. […] Inhibition of ABO incompatibility hemolysis in a CH50-type assay. Peptides are at a final concentration of 0.5 mM. Values are represented as a percent of the positive control, which consists of human 0 sera and AB red blood cells in GVBS^++ buffer. Data are the means of n=3 independent experiments±SEM.\nFor hemolytic complement assays, human red blood cells (RBCs) from type AB donors were purified, washed, and standardized to 1.0×10^9 cells/ml, as previously described. Human sera from type 0 donors at a 15% final concentration was combined with 0.5 mM of the peptides and the volume was brought up to 0.2 ml with GVBS^++ and 5.0×10^7 RBCs. The samples were incubated for 1 hour at 37° C. and then spun at 3,000 rpm for 5 minutes and the supernatant was collected and read at 412 nm. Values are represented as a percent of the positive control, which consists of human 0 sera and AB red blood cells in GVBS^++ buffer.\nTo assess the extent to which the peptide variants inhibit antibody-initiated complement activation, an ABO incompatibility ex vivo assay was utilized in which purified erythrocytes from a ‘type AB+’ donor are incubated with sera from a ‘type 0’ subject containing anti-A and anti-B antibodies. Peptides were tested at a concentration of 0.8 mg/ml (˜0.5 mM)."}, "CTLA-4": {"target": "T2, CTLA-4 (Homo sapiens, UniProt P16410)", "T2 sequence (P16410 36-223)": "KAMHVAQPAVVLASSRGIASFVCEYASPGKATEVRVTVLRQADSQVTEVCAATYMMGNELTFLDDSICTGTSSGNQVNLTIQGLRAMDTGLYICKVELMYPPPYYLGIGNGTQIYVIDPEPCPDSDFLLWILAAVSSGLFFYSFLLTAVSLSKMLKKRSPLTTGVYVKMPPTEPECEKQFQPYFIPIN", "experiment": "Peptide binding to immobilized CTLA-4, ELISA plate-based assay", "details": "increasing amounts of peptide", "protocol": "as §1, §2"}, "PD-L1": {"target": "PD-L1 (Homo sapiens, UniProt Q9NZQ7)", "sequence (Q9NZQ7 19-290)": "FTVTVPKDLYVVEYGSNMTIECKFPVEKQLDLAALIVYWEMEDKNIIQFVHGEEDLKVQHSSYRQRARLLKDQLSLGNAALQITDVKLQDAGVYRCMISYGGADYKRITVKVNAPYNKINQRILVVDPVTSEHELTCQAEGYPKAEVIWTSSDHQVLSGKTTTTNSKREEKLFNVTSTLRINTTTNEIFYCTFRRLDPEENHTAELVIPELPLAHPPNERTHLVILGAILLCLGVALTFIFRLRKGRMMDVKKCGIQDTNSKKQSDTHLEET", "experiment": "Peptide binding to immobilized PD-L1, ELISA plate-based assay", "details": "increasing amounts of peptide", "protocol": "as §1, §2"}, "MPO": {"target": "T3, MPO (Homo sapiens, UniProt P05164)", "T3 construct": "purchased Lee BioSolutions (Maryland Heights, MO)", "T3 sequence (P05164 279-745 limits assumed)": "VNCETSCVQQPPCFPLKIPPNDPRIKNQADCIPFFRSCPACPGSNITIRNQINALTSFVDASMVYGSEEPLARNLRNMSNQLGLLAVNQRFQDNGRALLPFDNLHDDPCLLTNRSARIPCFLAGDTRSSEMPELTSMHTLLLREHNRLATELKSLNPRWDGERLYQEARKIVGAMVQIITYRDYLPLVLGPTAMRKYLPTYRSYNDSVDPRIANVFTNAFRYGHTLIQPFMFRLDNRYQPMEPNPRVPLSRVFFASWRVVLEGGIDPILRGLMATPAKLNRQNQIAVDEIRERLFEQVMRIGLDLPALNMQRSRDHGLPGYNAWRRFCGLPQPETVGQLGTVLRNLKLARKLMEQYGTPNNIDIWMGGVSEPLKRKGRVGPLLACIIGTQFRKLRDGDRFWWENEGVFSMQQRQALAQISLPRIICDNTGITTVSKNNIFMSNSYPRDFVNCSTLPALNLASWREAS", "T3 sequence (P05164 165-273 limits assumed)": "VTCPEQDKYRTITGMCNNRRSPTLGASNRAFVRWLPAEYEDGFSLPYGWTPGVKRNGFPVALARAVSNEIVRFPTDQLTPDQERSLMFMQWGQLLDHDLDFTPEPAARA", "experiment": "MPO activity assay", "format": "biochemical", "details": "compared to parent peptide", "protocol": "The MPO activity assay was performed as previously described. Briefly, peptides were diluted to 12 mg/ml and serially titrated in a 96 well plate at a volume of 0.02 ml. MPO was diluted to 20 μg/ml and 0.02 ml was added to the titrated peptides. TMB (3,30,5,50-tetramethylbenzidine) (0.1 ml) was added to each well for 2 minutes, followed by 0.1 ml of 2.5 N H2SO4 for another 2 minutes, and then read on a 96 well plate reader (BioTek) at 450 nm.\nTo ascertain the inhibition of MPO activity by the various peptides, a range of concentrations of the stapled peptides and D-amino acid variants were tested (FIG. 3A-3B) and half-maximal activity levels were calculated from the dose-response curves (FIG. 6A-6C, respectively)."}, "MAC-1": {"target": "MAC-1 (Homo sapiens, UniProt P05107+P11215)", "sequence (P05107 23-769, other chains not shown)": "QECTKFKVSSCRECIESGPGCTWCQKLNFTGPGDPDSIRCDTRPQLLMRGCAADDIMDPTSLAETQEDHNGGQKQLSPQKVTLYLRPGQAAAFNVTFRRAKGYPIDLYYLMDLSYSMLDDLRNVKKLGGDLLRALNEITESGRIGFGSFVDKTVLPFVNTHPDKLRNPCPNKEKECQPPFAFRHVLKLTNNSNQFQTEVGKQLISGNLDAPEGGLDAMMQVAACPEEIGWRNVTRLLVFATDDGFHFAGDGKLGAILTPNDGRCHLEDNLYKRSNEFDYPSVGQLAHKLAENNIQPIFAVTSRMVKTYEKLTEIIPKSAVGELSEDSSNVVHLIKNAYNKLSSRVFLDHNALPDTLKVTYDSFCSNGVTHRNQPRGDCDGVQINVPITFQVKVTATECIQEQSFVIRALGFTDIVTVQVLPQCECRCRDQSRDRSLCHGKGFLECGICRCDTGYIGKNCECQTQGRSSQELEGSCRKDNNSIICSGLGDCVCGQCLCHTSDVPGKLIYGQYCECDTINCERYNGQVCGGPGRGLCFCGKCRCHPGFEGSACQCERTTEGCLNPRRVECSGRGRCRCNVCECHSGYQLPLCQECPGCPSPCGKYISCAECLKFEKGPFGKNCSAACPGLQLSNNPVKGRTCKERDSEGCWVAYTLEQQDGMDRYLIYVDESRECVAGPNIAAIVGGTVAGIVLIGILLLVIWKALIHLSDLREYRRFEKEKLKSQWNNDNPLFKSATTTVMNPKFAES", "experiment": "Peptide binding to immobilized MAC-1 (negative control), ELISA plate-based assay", "details": "increasing amounts of peptide; negative control protein", "protocol": "as §1, §2"}}, "note": "Bridges are numbered along the chain shown (N, C = ends). Where no end group is shown, it is not given here. [ ]: non-standard residue; d: D form. R8 = C=CCCCCCC[C@@](C)(N)C(=O)O; S5 = C=CCCC[C@](C)(N)C(=O)O; Sar = CNCC(=O)O", "data": [{"substance": "IAR8ILEP(Sar)CS5QERAA (IA[R8]ILEP[Sar]C[S5]QERAA; staple 3-10; not fully specified; printed as IAR8ILEP(Sar)CS5QERAA) [PA-0134]", "values": [{"measurement": "total antioxidant capacity, in words", "setting": "[1]", "result": "decreased activity compared to the parent peptide"}, {"measurement": "binding to C1q (binding curves, half-maximal binding), in words", "setting": "C1q [2]", "result": "markedly increased binding to C1q"}, {"measurement": "binding to C1q, in words", "setting": "C1q [3]", "result": "dose-dependent binding"}, {"measurement": "binding to PD-1, in words", "setting": "PD-1", "result": "dose-dependent binding"}, {"measurement": "inhibition of ABO incompatible hemolysis (complement inhibition), in words", "setting": "[4]", "result": "similar"}, {"measurement": "binding to CTLA-4, in words", "setting": "CTLA-4", "result": "bound CTLA-4"}, {"measurement": "binding to PD-L1, in words", "setting": "PD-L1", "result": "dose-dependent binding"}, {"measurement": "inhibition of MPO activity (half-maximal values), in words", "setting": "MPO", "result": "reduced inhibition of MPO activity"}, {"measurement": "binding to MAC-1, in words", "setting": "MAC-1", "result": "minimal binding"}]}]}
